Experimental data from publication PMC3770644 (PLoS ONE, 2013).

What was measured:
[1] = target: T1, ubiquitin (whether His-tagged or not is not told for the experiment) (UniProt P0CG48 1-76); test: NMR titration; unlabelled SH3 domain titrated into 0.25 mM 15N-ubiquitin; 1H-15N HSQC chemical shift perturbation; 25 °C; 50 mM NaPi, 1 mM DTT, pH 6.0; settings: both partners purified
T1 construct: ubiquitin, the 76-residue cut product (residues up to Gly76 are named); The methods list His-tagged and non His-tagged ubiquitin; It may carry the C-terminal His tag of m6; 15N- or 13C,15N-labelled in some NMR experiments; source: purchased from Spectra Isotopes or obtained as described in [12]; [18]

[2] = target: T1, ubiquitin (whether His-tagged or not is …); test: other fluorescence titration + ITC; 25 °C; ubiquitin stock titrated into the SH3 domain; ITC in 20 mM cacodylate, pH 6.0, about 50 µM SH3 in the cell and about 800 µM ubiquitin; intrinsic tryptophan fluorescence (excitation 298 nm), apparent affinities; model of a single set of identical sites; settings: both partners purified

Binder	binding result [1]	Kd [2] [µM]
CIN85 F322Y SH3-C (domain or fragment, UniProt Q96B97 270-328, looked up, CIN85 third SH3 domain (SH3-C) with F322Y; limits as the WT construct CIN85-SH3C(270-328)His6; Site-directed mutagenesis (QuikChange) of the WT construct m4; also called CIN85 SH3-C F322Y mutant; CIN85 F322Y SH3-C mutant; source: E. coli BL21/DE3, purified like the WT CIN85 SH3-C) DYCKVIFPYEAQNDDELTIKEGDIVTLINKDCIDVGWWEGELNGRRGVFPDNYVKLLPP	binds	–
CD2AP F324Y SH3-C (domain or fragment, CD2AP third SH3 domain (SH3-C) with F324Y; Site-directed mutagenesis (QuikChange) of the WT construct m3; also called SH3-C F324Y mutant; F324Y CD2AP SH3-C; source: E. coli BL21/DE3, purified like the WT CD2AP SH3-C) AKEYCRTLFPYTGTNEDELTFREGEIIHLISKETGEAGWWKGELNGKEGVFPDNYAVQIS	–	24 ± 3
CD2AP SH3-C T283A mutant (domain or fragment, CD2AP third SH3 domain (SH3-C) with T283A (RT loop); Mutant of m3; source: purchased from Topgene and expressed as the WT domains; purified) AKEYCRTLFPYTGANEDELTFREGEIIHLISKETGEAGWWKGELNGKEGVFPDNFAVQIS	binds	–
